These results are taken from patent US20140335107A1 (published 2014).

Where no end group is shown, it is not given here.

What is called Kd is a measure of binding affinity in units of concentration. Lower therefore signals a tighter complex.

For test [1], the target named is T1, extracellular domain of human CD79b fused to Fc (huCD79becd-Fc) (UniProt P40259 29-159).
T1 chain: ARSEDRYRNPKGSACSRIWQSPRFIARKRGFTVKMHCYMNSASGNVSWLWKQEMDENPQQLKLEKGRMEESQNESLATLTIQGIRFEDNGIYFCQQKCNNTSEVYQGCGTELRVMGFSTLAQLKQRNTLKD
In words: Biacore; Fab. For orientation: In SPR one partner is held on a chip, and binding of the other changes the refractive index at the surface.

The target of test [2] is T2, extracellular domain of human CD79b (huCD79becd) (UniProt P40259 29-159).
T2 chain: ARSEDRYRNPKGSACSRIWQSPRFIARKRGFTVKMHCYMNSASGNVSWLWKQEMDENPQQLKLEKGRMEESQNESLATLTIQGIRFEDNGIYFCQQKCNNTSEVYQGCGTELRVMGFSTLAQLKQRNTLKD
In words: Biacore; Fab.

Test [3] has as its target T2, extracellular domain of human CD79b …. In words: Biacore; IgG.
Test [4] deals with T1, extracellular domain of human CD79b …. In words: Biacore; IgG.
In test [5] the target is T3, 16 amino acid peptide containing the epitope for MA79b (ARSEDRYRNPKGSACK) (also: biotinylated (site not given here)).
T3 peptide: ARSEDRYRNPKGSACK
In words: Biacore; IgG.

B1: huMA79b graft variant with HVR-L2 of SEQ ID NO: 22 (huMA79b L2-2), Fab (Fab, V domains shown)
VH: EVQLVESGGGLVQPGGSLRLSCAASGYTFSSYWIEWVRQAPGKGLEWVGEILPGGGDTNYNEIFKGRFTISADTSKNTAYLQMNSLRAEDTAVYYCTRRVPVYFDYWGQGTLVTVSS
VL: DIQMTQSPSSLSASVGDRVTITCKASQSVDYDGDSFLNWYQQKPGKAPKLLIYAARKLGRGVPSRFSGSGSGTDFTLTISSLQPEDFATYYCQQSNEDPLTFGQGTKVEIKR
For B1, the Kd in test [1] was found to be 44 nM; in test [2], 39 nM.

B2: hu MA79b H1-6 (IgG) (antibody, V domains shown)
VH: EVQLVESGGGLVQPGGSLRLSCAASGYPFTRYWINWVRQAPGKGLEWVGEILPGGGDTNYNEIFKGRFTISADTSKNTAYLQMNSLRAEDTAVYYCTRRVPVYFDYWGQGTLVTVSS
VL: DIQMTQSPSSLSASVGDRVTITCKASQSVDYDGDSFLNWYQQKPGKAPKLLIYAASNLESGVPSRFSGSGSGTDFTLTISSLQPEDFATYYCQQSNEDPLTFGQGTKVEIKR
For B2, binding in test [3] was characterised by a dissociation constant (Kd) of 42 nM.

B3: MA79b-grafted humanized antibody variant L2-2 (huMA79b L2-2), IgG (antibody, V domains shown)
VH: EVQLVESGGGLVQPGGSLRLSCAASGYTFSSYWIEWVRQAPGKGLEWVGEILPGGGDTNYNEIFKGRFTISADTSKNTAYLQMNSLRAEDTAVYYCTRRVPVYFDYWGQGTLVTVSS
VL: DIQMTQSPSSLSASVGDRVTITCKASQSVDYDGDSFLNWYQQKPGKAPKLLIYAARKLGRGVPSRFSGSGSGTDFTLTISSLQPEDFATYYCQQSNEDPLTFGQGTKVEIKR
B3 showed a Kd in test [3] of 43 nM.

B4: MA79b-grafted humanized antibody (huMA79b graft), IgG (antibody, V domains shown)
VH: EVQLVESGGGLVQPGGSLRLSCAASGYTFSSYWIEWVRQAPGKGLEWVGEILPGGGDTNYNEIFKGRFTISADTSKNTAYLQMNSLRAEDTAVYYCTRRVPVYFDYWGQGTLVTVSS
VL: DIQMTQSPSSLSASVGDRVTITCKASQSVDYDGDSFLNWYQQKPGKAPKLLIYAASNLESGVPSRFSGSGSGTDFTLTISSLQPEDFATYYCQQSNEDPLTFGQGTKVEIKR
As for B4, in test [3], the Kd was 261 nM.

B5: MA79b-grafted humanized antibody variant L2/H3 (huMA79b L2/H3), IgG (antibody, V domains shown)
VH: EVQLVESGGGLVQPGGSLRLSCAASGYTFSSYWIEWVRQAPGKGLEWVGEILPGGGDTNYNEIFKGRFTISADTSKNTAYLQMNSLRAEDTAVYYCTRRVPIRLDYWGQGTLVTVSS
VL: DIQMTQSPSSLSASVGDRVTITCKASQSVDYDGDSFLNWYQQKPGKAPKLLIYAARKLGRGVPSRFSGSGSGTDFTLTISSLQPEDFATYYCQQSNEDPLTFGQGTKVEIKR
B5: the Kd in test [4] came out at 2 nM; in test [5] it was 1 nM; in test [3], 3 nM.

B6: hu MA79b H3-10 (IgG) (antibody, V domains shown)
VH: EVQLVESGGGLVQPGGSLRLSCAASGYTFSSYWIEWVRQAPGKGLEWVGEILPGGGDTNYNEIFKGRFTISADTSKNTAYLQMNSLRAEDTAVYYCTRRVPIRLDYWGQGTLVTVSS
VL: DIQMTQSPSSLSASVGDRVTITCKASQSVDYDGDSFLNWYQQKPGKAPKLLIYAASNLESGVPSRFSGSGSGTDFTLTISSLQPEDFATYYCQQSNEDPLTFGQGTKVEIKR
In test [3], B6 displayed a Kd of 29 nM.

B7: murine anti-CD79b monoclonal antibody MA79b (antibody, V domains shown)
VH: EVQLQQSGAELMKPGASVKISCKATGYTFSSYWIEWVKQRPGHGLEWIGEILPGGGDTNYNEIFKGKATFTADTSSNTAYMQLSSLTSEDSAVYYCTRRVPVYFDYWGQGTSVTVSS
VL: DIVLTQSPASLAVSLGQRATISCKASQSVDYDGDSFLNWYQQKPGQPPKLFIYAASNLESGIPARFSGSGSGTDFTLNIHPVEEEDAATYYCQQSNEDPLTFGAGTELELKR
For B7, the Kd was determined as 2 nM in test [4] and 4.7 nM in test [3].

B8: MA79b (Fab) (antibody, V domains shown)
VH: EVQLQQSGAELMKPGASVKISCKATGYTFSSYWIEWVKQRPGHGLEWIGEILPGGGDTNYNEIFKGKATFTADTSSNTAYMQLSSLTSEDSAVYYCTRRVPVYFDYWGQGTSVTVSS
VL: DIVLTQSPASLAVSLGQRATISCKASQSVDYDGDSFLNWYQKPGQPPKLFIYAASNLESGIPARFSGSGSGTDFTLNIHPVEEEDAATYYCQQSNEDPLTFGAGTELELKR
Molecule B8 returned an equilibrium dissociation constant (Kd) in test [1] of 200 nM.
